The labels stand for the following.
T1: vIRF3 mutant with deleted aa250-260 (Kaposi's sarcoma-associated herpesvirus …, UniProt F5HIC6 1-566)
T1 construct: V5-tagged, expressed in LECs; end of the protein at 566 from the TM3 range (430-566); also called vIRF3(Δ250-260)
T1 sequence: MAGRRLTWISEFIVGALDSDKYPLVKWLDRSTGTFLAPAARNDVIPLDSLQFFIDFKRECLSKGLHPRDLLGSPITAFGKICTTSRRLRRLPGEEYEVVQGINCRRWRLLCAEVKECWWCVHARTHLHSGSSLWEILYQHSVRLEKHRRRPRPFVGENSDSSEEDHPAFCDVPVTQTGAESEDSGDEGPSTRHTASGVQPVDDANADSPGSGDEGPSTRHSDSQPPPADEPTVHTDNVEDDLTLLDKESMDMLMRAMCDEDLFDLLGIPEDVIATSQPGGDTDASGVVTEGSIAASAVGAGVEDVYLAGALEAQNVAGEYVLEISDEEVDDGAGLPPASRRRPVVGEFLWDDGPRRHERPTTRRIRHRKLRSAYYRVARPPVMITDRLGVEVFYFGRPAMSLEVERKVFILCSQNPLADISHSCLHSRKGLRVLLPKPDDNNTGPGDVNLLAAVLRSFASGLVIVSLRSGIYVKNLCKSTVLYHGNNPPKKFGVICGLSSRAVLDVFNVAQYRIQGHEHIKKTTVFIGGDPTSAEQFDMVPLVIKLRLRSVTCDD

T2: vIRF3 (Δ250-280) mutant (Kaposi's sarcoma-associated herpesvirus …, UniProt F5HIC6 1-566)
T2 construct: V5-tagged, stably expressed in LECs; also called V5/vIRF3(Δ250-280); V5-vIRF3(Δ250-280)
T2 sequence: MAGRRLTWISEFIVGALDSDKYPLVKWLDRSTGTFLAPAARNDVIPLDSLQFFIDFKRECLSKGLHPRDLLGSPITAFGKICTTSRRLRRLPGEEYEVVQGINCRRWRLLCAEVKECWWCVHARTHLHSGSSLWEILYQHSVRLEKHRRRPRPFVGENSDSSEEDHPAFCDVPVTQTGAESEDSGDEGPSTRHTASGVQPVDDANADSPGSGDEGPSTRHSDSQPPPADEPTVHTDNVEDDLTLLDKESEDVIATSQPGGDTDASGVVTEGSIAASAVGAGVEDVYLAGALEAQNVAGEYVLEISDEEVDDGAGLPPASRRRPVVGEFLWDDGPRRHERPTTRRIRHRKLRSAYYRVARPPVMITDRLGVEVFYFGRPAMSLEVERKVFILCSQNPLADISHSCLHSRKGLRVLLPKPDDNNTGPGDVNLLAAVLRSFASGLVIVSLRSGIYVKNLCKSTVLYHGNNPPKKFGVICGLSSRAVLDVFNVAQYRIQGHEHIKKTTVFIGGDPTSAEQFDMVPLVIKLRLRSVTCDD

B1: pyruvate kinase M2 (PKM2) (enzyme)
chain: not shown
notes: Either endogenous PKM2 of LECs or HA-tagged hPKM2 from pCMV-HA-hPKM2 in 293T cells; also called PMK2; hPKM2
B2: Kaposi's sarcoma-associated herpesvirus (KSHV) viral interferon regulatory factor 3 (vIRF3), wild type (other)
chain: MAGRRLTWISEFIVGALDSDKYPLVKWLDRSTGTFLAPAARNDVIPLDSLQFFIDFKRECLSKGLHPRDLLGSPITAFGKICTTSRRLRRLPGEEYEVVQGINCRRWRLLCAEVKECWWCVHARTHLHSGSSLWEILYQHSVRLEKHRRRPRPFVGENSDSSEEDHPAFCDVPVTQTGAESEDSGDEGPSTRHTASGVQPVDDANADSPGSGDEGPSTRHSDSQPPPADEPTVHTDNVEDDLTLLDKESACALMYHVGQEMDMLMRAMCDEDLFDLLGIPEDVIATSQPGGDTDASGVVTEGSIAASAVGAGVEDVYLAGALEAQNVAGEYVLEISDEEVDDGAGLPPASRRRPVVGEFLWDDGPRRHERPTTRRIRHRKLRSAYYRVARPPVMITDRLGVEVFYFGRPAMSLEVERKVFILCSQNPLADISHSCLHSRKGLRVLLPKPDDNNTGPGDVNLLAAVLRSFASGLVIVSLRSGIYVKNLCKSTVLYHGNNPPKKFGVICGLSSRAVLDVFNVAQYRIQGHEHIKKTTVFIGGDPTSAEQFDMVPLVIKLRLRSVTCDD

Assay [1] addresses T1, vIRF3 mutant with deleted aa250-260. In words: IP with anti-PKM2, blot with anti-V5, LEC lysates.
Assay [2] has as its target T2, vIRF3 (Δ250-280) mutant. In words: told in words; LECs expressing the mutant.
Assay [3] deals with B1. In words: cell-based or functional assay.

On to B1, for which the binding result in assay [1] and in assay [2] was “no binding” throughout.
As to B2, in assay [3], the “Boyden chamber cell migration of LECs” value was found to be 2 fold.

(Values after patent US20250263444A1 (KOREA UNIVERSITY RESEARCH AND BUSINESS FOUNDATION SEJONG …, published 2025).)
